Source: paper PMC4020579 (Biochemistry, 2014)
Values belong to the molecule of their own block, whether it stands above or below them.

Tests used:
[1] = Solubility of RPA32C in crystallization screening; type: physicochemical; settings: all sparse matrix conditions examined, standard buffer conditions
[2] = target: RPA32C, the optimized RPA32_(202–270) construct (C-terminal winged-helix domain of the RPA 32 kDa subunit) (UniProt P15927 202-270); assay: NMR titration
[3] = target: RPA32_(172–270), the previously reported RPA32C construct of the replication protein A 32 kDa subunit (UniProt P15927 172-270); assay: ITC
Sequence of RPA32_(172–270), the previously reported RPA32C construct of the replication protein A 32 kDa subunit (P15927 172-270): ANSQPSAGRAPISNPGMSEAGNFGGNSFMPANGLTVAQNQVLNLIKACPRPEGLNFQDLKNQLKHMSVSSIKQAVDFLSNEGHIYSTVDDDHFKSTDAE

Sequence of RPA32C, the optimized RPA32_(202–270) construct (C-terminal winged-helix domain of the RPA 32 kDa subunit) (P15927 202-270): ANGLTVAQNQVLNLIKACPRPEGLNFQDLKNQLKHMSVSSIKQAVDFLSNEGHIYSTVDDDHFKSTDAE

Molecule: RPA32C: optimized C-terminal winged-helix domain construct of the RPA 32 kDa subunit, residues 202–270
concentration at which soluble [1]: ≥ 40000 µg/mL

binding result [2]: binds
B1: SMARCAL1_(7–32) peptide (peptide, UniProt Q9NZC9 7-32, looked up)
peptide: EEQRKKIEENRQKALARRAEKLLAEQ

Kd [3]: 2.5 ± 0.1 µM
B2: SMARCAL1_(1–32), SMARCAL1 residues 1–32 containing the RPA binding motif (RBM) (peptide, UniProt Q9NZC9 1-32, looked up)
chain: MSLPLTEEQRKKIEENRQKALARRAEKLLAEQ
